Assay results reported in publication PMC7084321, “Structural and Functional Characterization of New SsoPox Variant Points to the Dimer Interface as a Driver for the Increase in Promiscuous Paraoxonase Activity” (International Journal of Molecular Sciences, 2020).

Target: the molecule itself
Test: crystal structure; sitting drop vapor diffusion at 19 °C; space group P212121, two dimers per asymmetric unit; 4Mut at 6.0 mg/mL in 20 mM HEPES-NaOH pH 8.5, 0.5 mM CoCl2, 200 mM NaCl

B1: SsoPox V82L/C258L/I261F/W263A (4Mut) (enzyme, Saccharolobus solfataricus, UniProt Q97VT7 1-314, looked up)
chain: MRIPLVGKDSIESKDIGFTLIHEHLRVFSEAVRQQWPHLYNEDEEFRNAVNEVKRAMQFGVKTIVDPTVMGLGRDIRFMEKLVKATGINLVAGTGIYIYIDLPFYFLNRSIDEIADLFIHDIKEGIQGTLNKAGFVKIAADEPGITKDVEKVIRAAAIANKETKVPIITHSNAHNNTGLEQQRILTEEGVDPGKILIGHLGDTDNIDYIKKIADKGSFIGLDRYGLDLFLPVDKRNETTLRLIKDGYSDKIMISHDYLCTFDAGTAKPEYKPKLAPRWSITLIFEDTIPFLKRNGVNEEVIATIFKENPKKFFS
notes: SsoPox, phosphotriesterase-like lactonase from Saccharolobus solfataricus, with four substitutions; primers run from the start codon (NdeI site) to behind the stop codon (HindIII site); Two cobalt atoms per protein by ICP-MS; also called SsoPox 4Mut; SsoPox-4Mut; source: E. coli BL21(DE3), pT7-7-4Mut, purified (thermoprecipitation, Q-Sepharose, Superdex 75, MonoQ)
- binding result: binds
